Source: PMC5510004, “Recruitment and positioning determine the specific role of the XPF‐ERCC1 endonuclease in interstrand crosslink repair”

Experiments:
[1] = target: T1, XPF wild type (xlXPF);ERCC1 wild type (hsERCC1) (Xenopus laevis;Homo sapiens?, UniProt A0A8J0PXV9;P07992 1-897;1-297, |); test: fluorescence anisotropy; 2 mM Ca2+; 25 mM Hepes pH 8.0, 15% glycerol, 0.1 mg/ml BSA, 2 mM CaCl2, 10 nM DNA, 1 h at room temperature; conditions: protein: recombinant;recombinant; tags: FLAG;His; copies: 1;1; label: 5'-FAM on F1; three strands 1:1:1
T1 sequence 1: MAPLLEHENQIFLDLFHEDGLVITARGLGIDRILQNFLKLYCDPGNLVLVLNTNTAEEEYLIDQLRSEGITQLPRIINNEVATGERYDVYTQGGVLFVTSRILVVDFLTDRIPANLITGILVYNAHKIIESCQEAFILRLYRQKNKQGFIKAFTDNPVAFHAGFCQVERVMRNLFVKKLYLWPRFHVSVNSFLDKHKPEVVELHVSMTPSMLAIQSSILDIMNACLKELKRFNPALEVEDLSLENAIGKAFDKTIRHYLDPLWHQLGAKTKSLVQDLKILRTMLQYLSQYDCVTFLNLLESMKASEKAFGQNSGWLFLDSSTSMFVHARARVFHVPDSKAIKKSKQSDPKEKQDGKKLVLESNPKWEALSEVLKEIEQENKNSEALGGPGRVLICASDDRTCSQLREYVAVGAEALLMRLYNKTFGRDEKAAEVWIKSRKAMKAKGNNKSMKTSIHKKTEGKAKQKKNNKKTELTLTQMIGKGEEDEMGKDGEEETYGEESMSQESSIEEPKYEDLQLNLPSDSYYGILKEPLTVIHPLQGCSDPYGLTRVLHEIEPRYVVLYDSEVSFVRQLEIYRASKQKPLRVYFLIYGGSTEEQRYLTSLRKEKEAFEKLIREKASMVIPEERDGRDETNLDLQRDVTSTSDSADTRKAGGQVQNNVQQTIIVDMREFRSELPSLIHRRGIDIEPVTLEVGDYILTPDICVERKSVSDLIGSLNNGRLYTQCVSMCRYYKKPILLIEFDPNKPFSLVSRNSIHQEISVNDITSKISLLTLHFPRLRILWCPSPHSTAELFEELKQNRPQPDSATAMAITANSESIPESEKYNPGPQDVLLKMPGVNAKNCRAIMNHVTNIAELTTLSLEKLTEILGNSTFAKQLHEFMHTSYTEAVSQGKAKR
T1 sequence 2: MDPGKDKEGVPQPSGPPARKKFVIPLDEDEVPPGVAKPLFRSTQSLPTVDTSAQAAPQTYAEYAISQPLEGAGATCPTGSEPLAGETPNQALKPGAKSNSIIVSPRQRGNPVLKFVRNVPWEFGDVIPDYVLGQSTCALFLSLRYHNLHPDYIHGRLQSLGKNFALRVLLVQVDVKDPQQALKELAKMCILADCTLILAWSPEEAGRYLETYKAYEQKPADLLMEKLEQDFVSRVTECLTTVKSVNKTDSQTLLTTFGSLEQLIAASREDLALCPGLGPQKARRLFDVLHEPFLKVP

[2] = target: T2, XPF deltaNSGW;ERCC1 wild type (hsERCC1) (Xenopus laevis;Homo sapiens?, UniProt A0A8J0PXV9;P07992 1-897;1-297, del312-315|); test: fluorescence anisotropy; 2 mM Ca2+; comparable to wild type; 25 mM Hepes pH 8.0, 15% glycerol, 0.1 mg/ml BSA, 2 mM CaCl2, 10 nM DNA, 1 h at room temperature; conditions: protein: recombinant;recombinant; tags: FLAG;His; copies: 1;1; label: 5'-FAM on F1; three strands 1:1:1
T2 sequence 1: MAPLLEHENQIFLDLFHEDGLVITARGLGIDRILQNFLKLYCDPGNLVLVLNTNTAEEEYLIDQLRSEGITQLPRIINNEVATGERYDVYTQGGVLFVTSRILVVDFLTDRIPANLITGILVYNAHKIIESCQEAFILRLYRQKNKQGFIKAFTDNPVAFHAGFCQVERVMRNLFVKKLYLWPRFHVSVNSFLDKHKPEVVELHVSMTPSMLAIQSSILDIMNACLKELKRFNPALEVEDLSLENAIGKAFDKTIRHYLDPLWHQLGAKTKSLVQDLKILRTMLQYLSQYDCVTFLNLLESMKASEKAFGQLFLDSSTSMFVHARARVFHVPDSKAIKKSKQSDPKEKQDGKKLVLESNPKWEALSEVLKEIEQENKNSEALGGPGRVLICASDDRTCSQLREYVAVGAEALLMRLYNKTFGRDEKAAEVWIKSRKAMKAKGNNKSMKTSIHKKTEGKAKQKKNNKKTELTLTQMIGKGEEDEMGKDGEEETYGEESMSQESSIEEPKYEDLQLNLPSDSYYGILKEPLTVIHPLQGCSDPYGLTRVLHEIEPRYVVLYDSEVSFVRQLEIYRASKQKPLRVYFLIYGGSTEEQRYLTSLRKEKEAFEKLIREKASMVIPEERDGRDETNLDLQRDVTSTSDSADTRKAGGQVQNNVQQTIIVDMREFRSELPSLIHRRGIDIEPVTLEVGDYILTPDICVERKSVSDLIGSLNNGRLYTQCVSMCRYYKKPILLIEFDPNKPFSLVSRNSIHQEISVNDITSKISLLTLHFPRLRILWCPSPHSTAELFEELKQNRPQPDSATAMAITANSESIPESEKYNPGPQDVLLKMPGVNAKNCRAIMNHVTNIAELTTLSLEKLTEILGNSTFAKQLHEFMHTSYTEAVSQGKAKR
T2 sequence 2: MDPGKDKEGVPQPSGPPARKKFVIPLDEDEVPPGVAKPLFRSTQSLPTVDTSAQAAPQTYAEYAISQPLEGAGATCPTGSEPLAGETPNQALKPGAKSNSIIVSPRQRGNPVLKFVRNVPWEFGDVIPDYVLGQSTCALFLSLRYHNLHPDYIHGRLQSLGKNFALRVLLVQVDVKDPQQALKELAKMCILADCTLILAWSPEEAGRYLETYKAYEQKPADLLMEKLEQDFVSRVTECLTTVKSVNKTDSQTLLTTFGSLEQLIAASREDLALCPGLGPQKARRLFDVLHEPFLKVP

B1: 3' flap DNA substrate (F1+F2+F3) (dsDNA)
DNA 1: CGCGATGCGGATCCAA
DNA 2: CCTAGACTTAAGAGGCCAGACTTGGATCCGCATCGC
DNA 3: GGCCTCTTAAGTCTAGG
binding result [1]: binds
binding result [2]: binds
